B1: bivalent K1 (K1K1) (protein)
chain: GDCAKEGEVCSWGKKCCDLDNFYCPMEFIPHCKKYKPYVPVTTDCAKEGEVCSWGKKCCDLDNFYCPMEFIPHCKKYK
B2: bivalent K2 (K2K2) (protein)
chain: NCAKEGEVCGWGSKCCHGLDCPLAFIPYCEKYRPYVPVTTNCAKEGEVCGWGSKCCHGLDCPLAFIPYCEK

Target: rat TRPV1, full-length channel expressed in HEK293 cells (rat) (UniProt O35433)
Sequence (O35433 whole entry): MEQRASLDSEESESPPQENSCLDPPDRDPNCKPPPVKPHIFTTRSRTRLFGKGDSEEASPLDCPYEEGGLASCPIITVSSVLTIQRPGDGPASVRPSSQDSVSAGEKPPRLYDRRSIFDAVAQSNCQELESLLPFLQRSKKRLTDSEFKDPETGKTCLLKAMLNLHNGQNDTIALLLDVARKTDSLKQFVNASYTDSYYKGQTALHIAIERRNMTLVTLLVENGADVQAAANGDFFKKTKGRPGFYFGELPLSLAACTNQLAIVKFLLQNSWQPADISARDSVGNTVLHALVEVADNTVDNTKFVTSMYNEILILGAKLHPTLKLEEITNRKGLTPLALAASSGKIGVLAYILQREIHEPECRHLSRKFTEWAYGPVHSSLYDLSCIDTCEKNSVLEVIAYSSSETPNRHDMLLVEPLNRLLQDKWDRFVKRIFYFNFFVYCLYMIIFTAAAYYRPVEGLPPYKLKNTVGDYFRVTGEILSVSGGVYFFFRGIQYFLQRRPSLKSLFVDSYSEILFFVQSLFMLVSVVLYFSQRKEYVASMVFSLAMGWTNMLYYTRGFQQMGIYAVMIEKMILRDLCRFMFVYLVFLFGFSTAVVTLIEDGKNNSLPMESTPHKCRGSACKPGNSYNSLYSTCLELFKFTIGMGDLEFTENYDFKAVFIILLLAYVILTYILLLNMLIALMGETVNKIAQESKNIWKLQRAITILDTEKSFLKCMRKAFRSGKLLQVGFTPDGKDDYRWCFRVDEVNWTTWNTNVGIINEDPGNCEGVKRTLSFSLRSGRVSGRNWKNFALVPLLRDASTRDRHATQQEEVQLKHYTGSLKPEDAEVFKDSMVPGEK

Binder	fractional dissociation 1 min after toxin removal (current 1 min after removal divided by steady-state current with toxin), whole-cell patch clamp at +120 mV, TRPV1 in HEK cells
B1	0.3
B2	0.96

Reference: article PMC4764579, “Structural insights into the mechanism of activation of the TRPV1 channel by a membrane-bound tarantula toxin” (eLife, 2016)
